From IntAct's records for PubMed 31571211

B1: Phospholipid-transporting ATPase IH (Homo sapiens), P98196 (parent)
chain: MDCSLVRTLVHRYCAGEENWVDSRTIYVGHREPPPGAEAYIPQRYPDNRIVSSKYTFWNFIPKNLFEQFRRVANFYFLIIFLVQLIIDTPTSPVTSGLPLFFVITVTAIKQGYEDWLRHKADNAMNQCPVHFIQHGKLVRKQSRKLRVGDIVMVKEDETFPCDLIFLSSNRGDGTCHVTTASLDGESSHKTHYAVQDTKGFHTEEDIGGLHATIECEQPQPDLYKFVGRINVYSDLNDPVVRPLGSENLLLRGATLKNTEKIFGVAIYTGMETKMALNYQSKSQKRSAVEKSMNAFLIVYLCILISKALINTVLKYMWQSEPFRDEPWYNQKTESERQRNLFLKAFTDFLAFMVLFNYIIPVSMYVTVEMQKFLGSYFITWDEDMFDEETGEGPLVNTSDLNEELGQVEYIFTDKTGTLTENNMEFKECCIEGHVYVPHVICNGQVLPESSGIDMIDSSPSVNGREREELFFRALCLCHTVQVKDDDSVDGPRKSPDGGKSCVYISSSPDEVALVEGVQRLGFTYLRLKDNYMEILNRENHIERFELLEILSFDSVRRRMSVIVKSATGEIYLFCKGADSSIFPRVIEGKVDQIRARVERNAVEGLRTLCVAYKRLIQEEYEGICKLLQAAKVALQDREKKLAEAYEQIEKDLTLLGATAVEDRLQEKAADTIEALQKAGIKVWVLTGDKMETAAATCYACKLFRRNTQLLELTTKRIEEQSLHDVLFELSKTVLRHSGSLTRDNLSGLSADMQDYGLIIDGAALSLIMKPREDGSSGNYRELFLEICRSCSAVLCCRMAPLQKAQIVKLIKFSKEHPITLAIGDGANDVSMILEAHVGIGVIGKEGRQAARNSDYAIPKFKHLKKMLLVHGHFYYIRISELVQYFFYKNVCFIFPQFLYQFFCGFSQQTLYDTAYLTLYNISFTSLPILLYSLMEQHVGIDVLKRDPTLYRDVAKNALLRWRVFIYWTLLGLFDALVFFFGAYFVFENTTVTSNGQIFGNWTFGTLVFTVMVFTVTLKLALDTHYWTWINHFVIWGSLLFYVVFSLLWGGVIWPFLNYQRMYYVFIQMLSSGPAWLAIVLLVTISLLPDVLKKVLCRQLWPTATERVQTKSQCLSVEQSTIFMLSQTSSSLSF
partner: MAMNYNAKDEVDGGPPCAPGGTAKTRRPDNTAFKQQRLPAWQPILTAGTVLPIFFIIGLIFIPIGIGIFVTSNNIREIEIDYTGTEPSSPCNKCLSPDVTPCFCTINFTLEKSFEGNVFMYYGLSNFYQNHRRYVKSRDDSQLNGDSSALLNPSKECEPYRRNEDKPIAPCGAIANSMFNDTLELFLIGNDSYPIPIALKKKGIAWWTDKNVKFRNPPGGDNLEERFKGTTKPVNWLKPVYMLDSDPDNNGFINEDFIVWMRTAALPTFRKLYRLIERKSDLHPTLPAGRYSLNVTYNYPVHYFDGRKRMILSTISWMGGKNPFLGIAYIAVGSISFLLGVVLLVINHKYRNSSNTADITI
B2: Phospholipid-transporting ATPase IG (Homo sapiens), Q8NB49 (parent)
chain: MQMVPSLPPASECAGEEKRVGTRTVFVGNHPVSETEAYIAQRFCDNRIVSSKYTLWNFLPKNLFEQFRRIANFYFLIIFLVQVTVDTPTSPVTSGLPLFFVITVTAIKQGYEDCLRHRADNEVNKSTVYIIENAKRVRKESEKIKVGDVVEVQADETFPCDLILLSSCTTDGTCYVTTASLDGESNCKTHYAVRDTIALCTAESIDTLRAAIECEQPQPDLYKFVGRINIYSNSLEAVARSLGPENLLLKGATLKNTEKIYGVAVYTGMETKMALNYQGKSQKRSAVEKSINAFLIVYLFILLTKAAVCTTLKYVWQSTPYNDEPWYNQKTQKERETLKVLKMFTDFLSFMVLFNFIIPVSMYVTVEMQKFLGSFFISWDKDFYDEEINEGALVNTSDLNEELGQVDYVFTDKTGTLTENSMEFIECCIDGHKYKGVTQEVDGLSQTDGTLTYFDKVDKNREELFLRALCLCHTVEIKTNDAVDGATESAELTYISSSPDEIALVKGAKRYGFTFLGNRNGYMRVENQRKEIEEYELLHTLNFDAVRRRMSVIVKTQEGDILLFCKGADSAVFPRVQNHEIELTKVHVERNAMDGYRTLCVAFKEIAPDDYERINRQLIEAKMALQDREEKMEKVFDDIETNMNLIGATAVEDKLQDQAAETIEALHAAGLKVWVLTGDKMETAKSTCYACRLFQTNTELLELTTKTIEESERKEDRLHELLIEYRKKLLHEFPKSTRSFKKAWTEHQEYGLIIDGSTLSLILNSSQDSSSNNYKSIFLQICMKCTAVLCCRMAPLQKAQIVRMVKNLKGSPITLSIGDGANDVSMILESHVGIGIKGKEGRQAARNSDYSVPKFKHLKKLLLAHGHLYYVRIAHLVQYFFYKNLCFILPQFLYQFFCGFSQQPLYDAAYLTMYNICFTSLPILAYSLLEQHINIDTLTSDPRLYMKISGNAMLQLGPFLYWTFLAAFEGTVFFFGTYFLFQTASLEENGKVYGNWTFGTIVFTVLVFTVTLKLALDTRFWTWINHFVIWGSLAFYVFFSFFWGGIIWPFLKQQRMYFVFAQMLSSVSTWLAIILLIFISLFPEILLIVLKNVRRRSARRNLSCRRASDSLSARPSVRPLLLRTFSDESNVL
partner: B1 partner
B3: Phospholipid-transporting ATPase IF (Homo sapiens), Q9Y2G3 (parent)
chain: MWRWIRQQLGFDPPHQSDTRTIYVANRFPQNGLYTPQKFIDNRIISSKYTVWNFVPKNLFEQFRRVANFYFLIIFLVQLMIDTPTSPVTSGLPLFFVITVTAIKQGYEDWLRHNSDNEVNGAPVYVVRSGGLVKTRSKNIRVGDIVRIAKDEIFPADLVLLSSDRLDGSCHVTTASLDGETNLKTHVAVPETALLQTVANLDTLVAVIECQQPEADLYRFMGRMIITQQMEEIVRPLGPESLLLRGARLKNTKEIFGVAVYTGMETKMALNYKSKSQKRSAVEKSMNTFLIIYLVILISEAVISTILKYTWQAEEKWDEPWYNQKTEHQRNSSKILRFISDFLAFLVLYNFIIPISLYVTVEMQKFLGSFFIGWDLDLYHEESDQKAQVNTSDLNEELGQVEYVFTDKTGTLTENEMQFRECSINGMKYQEINGRLVPEGPTPDSSEGNLSYLSSLSHLNNLSHLTTSSSFRTSPENETELIKEHDLFFKAVSLCHTVQISNVQTDCTGDGPWQSNLAPSQLEYYASSPDEKALVEAAARIGIVFIGNSEETMEVKTLGKLERYKLLHILEFDSDRRRMSVIVQAPSGEKLLFAKGAESSILPKCIGGEIEKTRIHVDEFALKGLRTLCIAYRKFTSKEYEEIDKRIFEARTALQQREEKLAAVFQFIEKDLILLGATAVEDRLQDKVRETIEALRMAGIKVWVLTGDKHETAVSVSLSCGHFHRTMNILELINQKSDSECAEQLRQLARRITEDHVIQHGLVVDGTSLSLALREHEKLFMEVCRNCSAVLCCRMAPLQKAKVIRLIKISPEKPITLAVGDGANDVSMIQEAHVGIGIMGKEGRQAARNSDYAIARFKFLSKLLFVHGHFYYIRIATLVQYFFYKNVCFITPQFLYQFYCLFSQQTLYDSVYLTLYNICFTSLPILIYSLLEQHVDPHVLQNKPTLYRDISKNRLLSIKTFLYWTILGFSHAFIFFFGSYLLIGKDTSLLGNGQMFGNWTFGTLVFTVMVITVTVKMALETHFWTWINHLVTWGSIIFYFVFSLFYGGILWPFLGSQNMYFVFIQLLSSGSAWFAIILMVVTCLFLDIIKKVFDRHLHPTSTEKAQLTETNAGIKCLDSMCCFPEGEAACASVGRMLERVIGRCSPTHISRSWSASDPFYTNDRSILTLSTMDSSTC
partner: B1 partner
B4: Phospholipid-transporting ATPase VA (Homo sapiens), O60312 (parent)
chain: MEREPAGTEEPGPPGRRRRREGRTRTVRSNLLPPPGAEDPAAGAAKGERRRRRGCAQHLADNRLKTTKYTLLSFLPKNLFEQFHRPANVYFVFIALLNFVPAVNAFQPGLALAPVLFILAITAFRDLWEDYSRHRSDHKINHLGCLVFSREEKKYVNRFWKEIHVGDFVRLRCNEIFPADILLLSSSDPDGLCHIETANLDGETNLKRRQVVRGFSELVSEFNPLTFTSVIECEKPNNDLSRFRGCIIHDNGKKAGLYKENLLLRGCTLRNTDAVVGIVIYAGHETKALLNNSGPRYKRSKLERQMNCDVLWCVLLLVCMSLFSAVGHGLWIWRYQEKKSLFYVPKSDGSSLSPVTAAVYSFLTMIIVLQVLIPISLYVSIEIVKACQVYFINQDMQLYDEETDSQLQCRALNITEDLGQIQYIFSDKTGTLTENKMVFRRCTVSGVEYSHDANAQRLARYQEADSEEEEVVPRGGSVSQRGSIGSHQSVRVVHRTQSTKSHRRTGSRAEAKRASMLSKHTAFSSPMEKDITPDPKLLEKVSECDKSLAVARHQEHLLAHLSPELSDVFDFFIALTICNTVVVTSPDQPRTKVRVRFELKSPVKTIEDFLRRFTPSCLTSGCSSIGSLAANKSSHKLGSSFPSTPSSDGMLLRLEERLGQPTSAIASNGYSSQADNWASELAQEQESERELRYEAESPDEAALVYAARAYNCVLVERLHDQVSVELPHLGRLTFELLHTLGFDSVRKRMSVVIRHPLTDEINVYTKGADSVVMDLLQPCSSVDARGRHQKKIRSKTQNYLNVYAAEGLRTLCIAKRVLSKEEYACWLQSHLEAESSLENSEELLFQSAIRLETNLHLLGATGIEDRLQDGVPETISKLRQAGLQIWVLTGDKQETAVNIAYACKLLDHDEEVITLNATSQEACAALLDQCLCYVQSRGLQRAPEKTKGKVSMRFSSLCPPSTSTASGRRPSLVIDGRSLAYALEKNLEDKFLFLAKQCRSVLCCRSTPLQKSMVVKLVRSKLKAMTLAIGDGANDVSMIQVADVGVGISGQEGMQAVMASDFAVPKFRYLERLLILHGHWCYSRLANMVLYFFYKNTMFVGLLFWFQFFCGFSASTMIDQWYLIFFNLLFSSLPPLVTGVLDRDVPANVLLTNPQLYKSGQNMEEYRPRTFWFNMADAAFQSLVCFSIPYLAYYDSNVDLFTWGTPIVTIALLTFLLHLGIETKTWTWLNWITCGFSVLLFFTVALIYNASCATCYPPSNPYWTMQALLGDPVFYLTCLMTPVAALLPRLFFRSLQGRVFPTQLQLARQLTRKSPRRCSAPKETFAQGRLPKDSGTEHSSGRTVKTSVPLSQPSWHTQQPVCSLEASGEPSTVDMSMPVREHTLLEGLSAPAPMSSAPGEAVLRSPGGCPEESKVRAASTGRVTPLSSLFSLPTFSLLNWISSWSLVSRLGSVLQFSRTEQLADGQAGRGLPVQPHSGRSGLQGPDHRLLIGASSRRSQ
partner: B1 partner

Variants of: B1
Details: with cc50a_human TMEM30A

Row | Variant | effect of a mutation on the interaction
1 | G185L | disrupting interaction strength
2 | E186Q | increasing interaction strength
3 | D414N | disrupting interaction strength

Variants of: B2
Details: with cc50a_human TMEM30A

Row | Variant | effect of a mutation on the interaction
4 | D412N | disrupting interaction strength
5 | G183L | disrupting interaction strength
6 | E184Q | increasing interaction strength

Variants of: B3
Details: with cc50a_human TMEM30A

Row | Variant | effect of a mutation on the interaction
7 | E180Q | increasing interaction strength
8 | G179L | decreasing interaction strength
9 | D407N | disrupting interaction strength

Variants of: B4
Details: with cc50a_human TMEM30A

Row | Variant | effect of a mutation on the interaction
10 | D427N | disrupting interaction strength
11 | E203Q | increasing interaction strength
12 | G202L | disrupting interaction strength
